Source: article PMC4932183, “Structure and activation of pro-activin A” (Nature Communications, 2016)

B1: mature activin A (disulfide-linked dimer of the mature domain of inhibin βA) (ligand, human, UniProt P08476 311-426, looked up)
chain: GLECDGKVNICCKKQFFVSFKDIGWNDWIIAPSGYHANYCEGECPSHIAGTSGSSLSFHSTVINHYRMRGHSPFANLKSCCVPTKLRPMSMLYYDDGQNIIKKDIQNMIVEECGCS
notes: human inhibin βA chain (Uniprot P08476), mature domain, up to residue 426; residues marked m (Asp27m) count on the mature domain. numbers count on: the mature protein; Residues of the HRV 3C site could be left at the N-terminus of the complex-derived form; also called mature dimer; control activin A

Legend:
[1] = target: B1; test: cell-based or functional assay
[2] = target: T1, cleaved pro-activin A complex (pro-mature complex) (human, UniProt P08476 311-426); test: cell-based or functional assay
T1 sequence (P08476 whole entry, looked up): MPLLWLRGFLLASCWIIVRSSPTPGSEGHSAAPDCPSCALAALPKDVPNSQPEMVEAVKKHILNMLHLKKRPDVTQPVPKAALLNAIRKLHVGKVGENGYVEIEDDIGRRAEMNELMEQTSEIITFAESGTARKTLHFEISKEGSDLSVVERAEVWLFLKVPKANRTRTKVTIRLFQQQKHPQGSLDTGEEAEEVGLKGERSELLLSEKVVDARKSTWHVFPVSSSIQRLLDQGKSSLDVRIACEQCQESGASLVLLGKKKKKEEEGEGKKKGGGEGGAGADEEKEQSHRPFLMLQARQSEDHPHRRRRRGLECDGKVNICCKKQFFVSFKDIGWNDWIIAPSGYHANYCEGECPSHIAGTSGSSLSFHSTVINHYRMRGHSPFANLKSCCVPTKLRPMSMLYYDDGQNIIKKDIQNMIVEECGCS

[3] = target: T2, Avi-tagged follistatin-288, biotinylated (UniProt P19883-2 30-317, biotin (on the Avi tag, by BirA)); test: BLI; biotinylated Avi-tagged FST-288 immobilised on streptavidin biosensors; analytes in kinetic buffer (PBS, 0.1% bovine serum albumin, 0.02% Tween-20); 600 s association, 600 s dissociation; 30 °C; details: both partners purified
T2 construct: source: biotinylated with BirA enzyme, purified by reverse phase chromatography

Row | Binder | IC50 of FST-288 for inhibition of signalling by 60 pM mature activin A; activin-inducible luciferase reporter in HEK293T cells [1] [pM] | IC50 of FST-288 for inhibition of signalling by 60 pM pro-activin A complex; activin-inducible luciferase reporter in HEK293T cells [2] [pM] | Kd [3] [nM]
1 | follistatin-288 (natural protein, UniProt P19883-2 30-317, looked up) GNCWLRQAKNGRCQVLYKTELSKEECCSTGRLSTSWTEEDVNDNTLFKWMIFNGGAPNCIPCKETCENVDCGPGKKCRMNKKNKPRCVCAPDCSNITWKGPVCGLDGKTYRNECALLKARCKEQPELEVQYQGRCKKTCRDVFCPGSSTCVVDQTNNAYCVTCNRICPEPASSEQYLCGNDGVTYSSACHLRKATCLLGRSIGLAYEGKCIKAKSCEDIQCTGGKKCLWDFKVGRGRCSLCDELCPDSKSDEPVCASDNATYASECAMKEAACSSGVLLEVKHSGSCN | 81 | 90 | –
2 | B1 | – | – | 0.209
